Results taken from the supplement of paper PMC10567573.
± gives the standard deviation.

Assay: protein stability index of a GFP-peptide fusion (GPS, HEK-293T) (PSI 1-6); higher = more stable
[1] = treatment: DMSO, c terminus: a fixed tail appended
[2] = treatment: MLN4924 1 uM, 8 h, c terminus: a fixed tail appended
[3] = treatment: DMSO, c terminus: native
[4] = treatment: MLN4924 1 uM, 8 h, c terminus: native
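Further: 24-mer peptide tiles fused after GFP, lentivirally expressed, FACS-sorted into six equal bins by GFP/DsRed ratio, decoded by Illumina sequencing, PSI is the read-weighted mean bin number.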

| Sequence | protein stability index [1] | protein stability index [2] | protein stability index [3] | protein stability index [4] |
| --- | --- | --- | --- | --- |
| FVVEYHGDLIEITDAKKREALYAQ [KMT5A] | 2.65 ± 0.34 | 2.73 ± 0.41 | – | – |
| RIASRAIDNAADLLIFGKELSAIG [SNX8] | 2.34 ± 0.28 | 2.44 ± 0.38 | – | – |
| FSQYGRIITSRILVDQVTGVSRGV [ELAVL3] | 2.23 ± 0.26 | 2.33 ± 0.23 | – | – |
| VVTMTTVGYGDMHPVTIGGKIVGS [KCNA3] | 2.33 ± 0.4 | 2.37 ± 0.45 | – | – |
| LHDARLLRTIPSPYPASKADIPSV [DCAF4] | 3.36 ± 0.21 | 3.43 ± 0.11 | – | – |
| VVENAEKILGYLNTNVLSRDLIPP [SLC6A17] | 2.82 ± 0.15 | 2.84 ± 0.38 | – | – |
| PHRVLETRGHAISILFGFWTSFIC [SMIM2] | 2.46 ± 0.41 | 2.32 ± 0.18 | – | – |
| DSYYRLVIHRALDREQVSSYNITV [PCDHGA10] | 2.87 ± 0.6 | 2.44 ± 0.55 | – | – |
| ENELMISYLMFLQILVYFSFMSW [FAM98B] | – | – | 3.17 ± 0.67 | 3.26 ± 0.33 |
| YARYSLKSIDPVLMAPTCVFLASK [CCNC] | 2.16 ± 0.65 | 2 ± 0.3 | – | – |
| RTRRRLSRNRDPGRLILSTIRLRP [PWWP2B] | 4.41 ± 0.45 | 4.32 ± 0.21 | – | – |
| DLNIQLLKDGYRLDEIPDDEDLDL [FAM219A] | 5.17 ± 0.16 | 5.16 ± 0.079 | – | – |
| NIVFGTGPRVGEALVSHPEVPLIS [ALDH8A1] | 2.9 ± 0.21 | 2.83 ± 0.27 | – | – |
| PILSRSTSTGSAASSGSNSSASSE [SPRY1] | 5.42 ± 0.22 | 5.44 ± 0.19 | – | – |
| MAGTGLLALRTLPGPSWVRGSGPS [ALKBH7] | 2.68 ± 0.19 | 2.88 ± 0.11 | – | – |
| EEEKILRVKLEEDPDGEEGSSIPW [ZNF24] | 5.56 ± 0.13 | 5.58 ± 0.26 | – | – |
| SAEINQDLNIQLLKDGYRLDEIPD [FAM219A] | 4.91 ± 0.062 | 5.08 ± 0.18 | – | – |
| VGVDGVRAFLQTYSHEVSLTADSR [PCDHGA10] | 2.49 ± 0.37 | 2.61 ± 0.39 | – | – |
| LNLTRKLAQQLCTALLFLATPELS [DYRK1B] | 2.9 ± 0.51 | 3.21 ± 0.47 | – | – |
| LLLGSPHPAATALHAELCQAGSSQ [LPCAT4] | 3.01 ± 0.42 | 3.18 ± 0.21 | – | – |
| ADRQCQLTFGPDSRHCPQLPPPCA [ADAMTS4] | 4.08 ± 0.16 | 4.08 ± 0.081 | – | – |
| PDKKKRPRRSLSISKNKKKASNSI [FAN1] | 4.56 ± 0.2 | 4.76 ± 0.068 | – | – |
| EILEIDDLDAIVPAVKKLKVLSY [CEP70] | – | – | 2.87 ± 0.8 | 3.1 ± 0.041 |

| Sequence | protein stability index [1] | protein stability index [2] | protein stability index [3] | protein stability index [4] |
| --- | --- | --- | --- | --- |
| KETLAVNYEKEEEFLTNELSRKLM [CCDC6] | 4.05 ± 0.25 | 4.44 ± 0.27 | – | – |
| IETGENVTGMELEFKRLASSKAHT [PTPRD] | 4.35 ± 0.12 | 4.33 ± 0.29 | – | – |
| LNLDIGQVYKETRLFLDGEEEKEW [AASDHPPT] | 3.95 ± 0.43 | 4.09 ± 0.44 | – | – |
| VESSLDKVVLSDAYAHPQQKVAVY [TRADD] | 2.88 ± 0.29 | 3.26 ± 0.12 | – | – |
| ALQNYNNELVKCIEELCQKREELC [SSNA1] | 2.94 ± 0.18 | 2.94 ± 0.33 | – | – |
| ACGLSDVAHVESLQEKSQCALEEY [NR2F2] | 4.58 ± 0.28 | 4.67 ± 0.3 | – | – |
| HRPSTLQAASTPQAEEDWTCTIL [OAS1] | – | – | 4.18 ± 0.17 | 4.45 ± 0.14 |
| EFDLSPLNLDIGQVYKETRLFLDG [AASDHPPT] | 2.89 ± 0.28 | 2.96 ± 0.27 | – | – |
| PILQEGMDEEKLKQLNCVEISALN [DLC1] | 5.08 ± 0.15 | 4.87 ± 0.15 | – | – |
| NNFDNLDFDLDLVPWESDIWDINN [ATF6] | 3.2 ± 0.21 | 3.46 ± 0.11 | – | – |
| RRHLQFWKSHLRNVQRPLLQAPFL [RHOBTB2] | 2.29 ± 0.38 | 2.21 ± 0.3 | – | – |
| SGSQRHMVGQKDSVILSVKFSPFG [TLE6] | 2.2 ± 0.27 | 2.49 ± 0.22 | – | – |
| SELQREMEALAAETNLLLAQKQRL [TEKT4] | 4 ± 0.53 | 4.2 ± 0.13 | – | – |
| DTHNTNNLDTEELCEYFSQHLGEY [NECAB1] | 4.41 ± 0.36 | 4.17 ± 0.33 | – | – |
| YHRETEGEEQSQYMHVGSCQHLSS [KCNA3] | 4.09 ± 0.32 | 4.71 ± 0.47 | – | – |
| TSTVNSAREELMESRMRIESLSSQ [LMNB1] | 4.54 ± 0.15 | 4.51 ± 0.18 | – | – |
| LYPDLSCPEGLEELLSAPPPDLGA [SPSB2] | 4.27 ± 0.14 | 4.46 ± 0.12 | – | – |
| EKLTKITRTGPSAWETKKILAVSF [PCMTD2] | 2.57 ± 0.57 | 2.37 ± 0.66 | – | – |
| PTLAKFSPYLGQMINLRRLLLSHI [PRAME] | 2.33 ± 0.42 | 2.15 ± 0.11 | – | – |
| AFSYSSSSRFSSSRLLGSASPSSS [PRPH] | 3.04 ± 0.21 | 3.09 ± 0.051 | – | – |
| QSHDDLSNATATPSVRKKAGSFSR [C2CD2L] | 4.75 ± 0.31 | 4.67 ± 0.2 | – | – |
| LPRKESPSVRSSKDGKLLAATLLL [TNFSF13B] | 2.26 ± 0.21 | 2.18 ± 0.22 | – | – |
| SARFWIPGEPNNAGNNEHCGNIKA [CD207] | 4.03 ± 0.47 | 4.18 ± 0.41 | – | – |

| Sequence | protein stability index [1] | protein stability index [2] | protein stability index [3] | protein stability index [4] |
| --- | --- | --- | --- | --- |
| LVVFTASMEIYGSAVADKLDNSRS [CTDNEP1] | 2.92 ± 0.74 | 2.26 ± 0.37 | – | – |
| WMHTPEALSKHFIPYNAKFLGSTE [GULP1] | 2.27 ± 0.12 | 2.3 ± 0.16 | – | – |
| NWLHRRLAGQFLEELRKFSSLCYK [MOG] | 2.5 ± 0.15 | 2.57 ± 0.27 | – | – |
| LIGLPPEDDWPRDVSLPRGAFPPR [CDK4] | 3.49 ± 0.32 | 3.69 ± 0.23 | – | – |
| ERPLPNPEGLDSDFLAVLSDYPSP [SLA] | 4.26 ± 0.39 | 4.58 ± 0.41 | – | – |
| LAGGYTSSLACHRALQDAFSGLFW [MNAT1] | 2.44 ± 0.12 | 2.45 ± 1 | – | – |
| VLFLDHVMYTIHMGCHGFRDPFEC [IKZF1] | 3 ± 0.26 | 2.96 ± 0.49 | – | – |
| SSNGNDNGNGKNGGLEHVPSSSSI [BNIP3L] | 5.2 ± 0.29 | 5.33 ± 0.17 | – | – |
| SKIGFGILLSKEPDGVWAYNRGEH [SMAD6] | 2.43 ± 0.25 | 2.71 ± 0.15 | – | – |
| THVLSKEVQHLREEKSKQFLDLME [LRRC45] | 3.66 ± 0.26 | 3.81 ± 0.26 | – | – |
| GLGCKDLDLIFHVALPTEAEFQLV [TENT5C] | 2.26 ± 0.21 | 2.28 ± 0.45 | – | – |
| PASAPGEPRQRRLLLLDLLALYTP [ANKRD9] | 2.25 ± 0.071 | 2.02 ± 0.48 | – | – |
| TKVQKKSLLLKKPLRVDLILENTS [NOP53] | 2.71 ± 0.19 | 2.84 ± 0.39 | – | – |
| VSPPESPTVTTSWQSESLPVSLSA [BCL2L13] | 4.43 ± 0.08 | 4.37 ± 0.27 | – | – |
| HQPPYIIAVLPRYVEIRTFEPRLL [VPS39] | 2.61 ± 0.75 | 2.38 ± 0.37 | – | – |
| RRVLPCIPSEEWPNPPTLQEAGLS [FAF2] | 3.9 ± 0.38 | 3.79 ± 0.18 | – | – |
| RRHTSMERYDPNIDQWSMLGDMQT [KLHL12] | 3.86 ± 0.27 | 3.82 ± 0.26 | – | – |
| HLTVHKRIHTGERPYMCKECGKAF [ZNF8] | 2.73 ± 0.28 | 3.27 ± 0.38 | – | – |
| EGENYQKGERGEDSSEEKHLEEPG [CHGB] | 5.63 ± 0.39 | 5.57 ± 0.32 | – | – |
| IDSSSSWWTNWVIPAISAVAVALM [CYB5A] | 2.64 ± 0.14 | 2.69 ± 0.15 | – | – |
| ALVIMWQKHYVYGPLPQSFDKEWV [COX4I1] | 2.88 ± 0.33 | 2.92 ± 0.39 | – | – |
| ASDGSDFTFLRPLSVQQPTALALE [PCDHGC5] | 3.82 ± 0.17 | 3.82 ± 0.32 | – | – |
| FSQKSCLVAHQRYHTGKTPFVCPE [ZNF649] | 2.58 ± 0.13 | 2.6 ± 0.23 | – | – |

| Sequence | protein stability index [1] | protein stability index [2] | protein stability index [3] | protein stability index [4] |
| --- | --- | --- | --- | --- |
| AGSTAGAAETRGAVEGAARTTPSR [PALM] | 5.11 ± 0.36 | 5.14 ± 0.27 | – | – |
| CFKAAFLDFKDLLESEDWEEDNWD [TEX19] | 2.95 ± 0.2 | 3.24 ± 0.36 | – | – |
| IRTYLGRSPLVSGDESSLLLNAAS [RHOBTB3] | 2.62 ± 0.35 | 2.46 ± 0.34 | – | – |
| MSFLSRQQPPPPRRAGAACTLRQK [WEE1] | 3.94 ± 0.2 | 3.88 ± 0.24 | – | – |
| GRVVPESQCQMETKPLAIHPCGDK [ADAMTSL2] | 4.53 ± 0.17 | 4.71 ± 0.46 | – | – |
| QYLALPERAELAASLGLTQTQVKI [DLX1] | 2.95 ± 0.33 | 3.03 ± 0.22 | – | – |
| FGKDFRKGLLKKGACYGDDACFVA [PPTC7] | 2.24 ± 0.31 | 2.53 ± 0.35 | – | – |
| YRAITSAYYRGAVGALLVYDIAKH [RAB11A] | 2.43 ± 0.51 | 2.16 ± 0.33 | – | – |
| TINNFSFCREEMGEVLKSSTFSSG [SPOPL] | 2.33 ± 0.21 | 2.53 ± 0.28 | – | – |
| KGTEKQTTSETQKSVQCGTWTKHA [NETO1] | 4.84 ± 0.26 | 4.82 ± 0.13 | – | – |
| ELQSQLSMKASLEGNLAETENRYC [KRT17] | 3.93 ± 0.25 | 4.18 ± 0.14 | – | – |
| CLTCGKSFRQGMHLTRHQRTHTGE [ZNF263] | 4.03 ± 0.23 | 3.98 ± 0.46 | – | – |
| ASIPEHLAYGSVITVKNLRMAIGY [POMT2] | 2.41 ± 0.29 | 2.43 ± 0.33 | – | – |
| WCLHVNNWLQVSFTAKHANKVKVL [FSD1] | 3.04 ± 0.73 | 2.93 ± 0.5 | – | – |
| CDVWSIGCILFEYYRGFTLFQTHE [CLK3] | 3.1 ± 0.48 | 3.25 ± 0.44 | – | – |
| HTPGGQNQEILLPGGITSHQLLGL [TNXB] | 3.33 ± 0.22 | 3.47 ± 0.31 | – | – |
| CPASNECEITKRRRKACQACRFTK [ESRRA] | 3.94 ± 0.33 | 4.26 ± 0.23 | – | – |
| SYSFQNPSSFDPSMLLQRFSVAPH [RNF180] | 2.58 ± 0.28 | 2.68 ± 0.23 | – | – |
| TNPDLYPVRRIDGLTDVSQIITVT [IQUB] | 2.86 ± 0.26 | 3.06 ± 0.26 | – | – |
| YIHFFHTVLKQIAPEYFEKNEPYL [DENND6A] | 1.96 ± 0.5 | 2.77 ± 0.53 | – | – |
